In patent publication WO2011161970A1 (dated 2011):
Where a chain is given by its changes, count along the chain named. Values belong to the binder of their own block, whether it stands above or below them.

Columns and labels:
[1] = target: T1, human PDGFRα-Fc fusion protein (PDGFRα extracellular region [1-514 amino acids] and mouse IgG2a constant … (human; mouse, UniProt P16234 24-514); experiment: EIA, PDGFRα-Fc immobilised on plate, serially diluted COS-1 culture supernatant
T1 construct: not shown: mouse IgG2a constant region

[2] = target: T1, human PDGFRα-Fc fusion protein (PDGFRα …); experiment: EIA, PDGFRα-Fc immobilised on plate, serially diluted COS-1 culture supernatant, anti-human IgG constant region HRP detection

T1 sequence (P16234 24-514 limits assumed): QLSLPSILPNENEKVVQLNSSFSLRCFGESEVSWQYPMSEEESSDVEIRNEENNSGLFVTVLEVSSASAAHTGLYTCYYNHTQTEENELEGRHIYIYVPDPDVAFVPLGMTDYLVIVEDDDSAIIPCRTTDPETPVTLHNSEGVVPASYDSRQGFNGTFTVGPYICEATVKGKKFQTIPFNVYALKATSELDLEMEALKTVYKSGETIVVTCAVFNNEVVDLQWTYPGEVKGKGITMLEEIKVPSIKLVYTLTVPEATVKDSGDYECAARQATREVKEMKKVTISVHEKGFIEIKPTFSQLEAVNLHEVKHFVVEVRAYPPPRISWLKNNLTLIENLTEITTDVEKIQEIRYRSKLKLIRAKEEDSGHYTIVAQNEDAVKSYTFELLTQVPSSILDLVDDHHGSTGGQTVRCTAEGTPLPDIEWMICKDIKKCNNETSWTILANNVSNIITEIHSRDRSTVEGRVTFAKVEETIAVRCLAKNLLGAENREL

- binding result [1]: binds
B1: 21A1 antibody (mouse anti-human PDGFRα monoclonal antibody, clone number 21A1) (antibody, V domains shown)
VH: EVKLLESGGGLVQPGGSLKLSCAASGFDFSIFWMSWVRQAPGKGLEWIGEINPDSSTINYTPSLKDKFIISRDNAKNTLYLQMSKVRSEDTALYFCARQRFGPYWGQGTLVTVSA
VL: DIVMTQSHKFMSTSVGDRVSITCKASQDVSTAVAWYQQKPGQSPNLLIYSASYRYTGVPDRFTGSGSGTDFTFTISSVQAEDLAVYYCQQYYSTPYTFGGGTKLEIKR
notes: no cleavage site is stated; also called monoclonal antibody 21A1; hPDGFRα(21A1) MoAb

- binding result [1]: binds
B2: 24A1 antibody (mouse anti-human PDGFRα monoclonal antibody, clone number 24A1) (antibody, V domains shown)
VH: DVQLQESGPGLVKPSQSLSLTCTVTGYSITSDYAWNWIRQFPGNKLEWVGYISYSGSTSYNPSLKSRISITRDTSKNQFFLQLNSVTTEDTATYYCARRDYRYGYWYFDVWGAGTTVTVSS
VL: DIQMNQSPSSLSASLGDTITITCHASQNIHVWLTWYQQKPGNIPKLLIYKASNLHTGVPSRFSGSGSGTGFTLTISSLQPEDIATYYCQQGQSYPWTFGGGTKLEIKR
notes: no cleavage site is stated; also called monoclonal antibody 24A1; mouse anti-PDGFRα antibody (24A1 antibody)

- binding result [2]: binds
B3: humanized anti-PDGFRα antibody (24A1) (antibody, human IgG1, kappa, V domains shown)
VH: DVQLQESGPGLVKPSQTLSLTCTVSGYSITSDYAWNWIRQPPGKGLEWVGYISYSGSTSYNPSLKSRISITRDTSKNQFSLKLSSVTAADTAVYYCARRDYRYGYWYFDVWGAGTTVTVSS
VL: B2 VL with L11V, L15V, T18R, I19V, N42K, I43A, G70D, I83F
notes: also called humanized 24A1 antibody; Hu PDGFRa (24A1)
